According to US20220107306A1:

B1: anti-HER2-VHH antibody (SH group-containing VHH antibody that recognizes HER2 antigen), bound to the surface of PID-T (VHH)
VHH: EVQLVESGGGLVQAGGSLRLSCAASGITFSINTMGWYRQAPGKQRELVALISSIGDTYYADSVKGRFTISRDNAKNTVYLQMNSLKPEDTAVYYCKRFRTAQGTDYWGQGTQVTVSS
modifications: C-terminal cysteine of the linker reduced with DTT to a free SH group and coupled to the maleimide group of TAMRA-encapsulating silica nanoparticles (PID-T)

Experiments:
[1] = system: rabbit IgG (anti-PD-L1 rabbit monoclonal antibody clone SP142) (Oryctolagus cuniculus); details: 5' SH (reduced disulfide), coupled to maleimide-PEG nanoparticle; secondary staining of SP142 rabbit mAb on NCI-H446 section; 0.05 nM aptamer-nanoparticle, PBS 1% BSA, RT 3 h
[2] = target: Recombinant human HER2 protein (E27-11G-10/Signal Chem) (human) (UniProt P04626); test: sandwich ELISA: HER2 captured by antibody 6C2, detected with 0.67 nM antibody-coated PID-T particles, before lyophilizing
[3] = target: Recombinant human HER2 protein (E27-11G-10/Signal Chem) (human) (UniProt P04626); test: sandwich ELISA: HER2 captured by antibody 6C2, detected with 0.67 nM antibody-coated PID-T particles, after lyophilizing
[4] = target: Recombinant human PDL1 protein (BioVision/7429-50) (human) (UniProt Q9NZQ7); test: sandwich ELISA: PDL1 captured by antibody 28-8, detected with antibody-coated PID particles, before lyophilizing
[5] = target: Recombinant human PDL1 protein (BioVision/7429-50) (human) (UniProt Q9NZQ7); test: sandwich ELISA: PDL1 captured by antibody 28-8, detected with antibody-coated PID particles, after lyophilizing

Sequence of UniProt Q9NZQ7 (Q9NZQ7 19-238 limits assumed): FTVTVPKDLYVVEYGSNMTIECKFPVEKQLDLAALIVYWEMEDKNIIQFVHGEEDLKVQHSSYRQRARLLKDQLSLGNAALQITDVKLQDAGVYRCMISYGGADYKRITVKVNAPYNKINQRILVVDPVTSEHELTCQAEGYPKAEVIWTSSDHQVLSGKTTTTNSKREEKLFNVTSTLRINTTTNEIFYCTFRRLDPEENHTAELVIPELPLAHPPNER

Row | Molecule | binding (bright spots per cell) [1] | Fluorescence intensity (PFU), before lyophilizing [2] | Fluorescence intensity (PFU), after lyophilizing [3] | Fluorescence intensity (PFU), before lyophilizing [4] | Fluorescence intensity (PFU), after lyophilizing [5]
1 | GGGAGAAUUCCGACCAGAAGUUCGAUACGCCGUGGGGUGACGUUGGCUACCCUUUCCUCUCUCCUCCUUCUUCU [rabbit IgG RNA aptamer (74 mer)] | 605 |  |  |  | 
2 | anti-HER2-Fab antibody prepared from the anti-HER2-whole antibody (Abcam EP1045Y), bound to the surface of PID-T |  | 41000 PFU | 18000 PFU |  | 
3 | anti-HER2-whole antibody (Abcam, product code EP1045Y), bound to the surface of PID-T |  | 33000 PFU | 15000 PFU |  | 
4 | anti-PDL1-recombinant antibody (clone E1L3N/Cell Signaling Technology), bound to the surface of PID-P |  |  |  | 17000 PFU | 5500 PFU
5 | B1 |  | 51000 PFU | 49000 PFU |  | 
